Measurements: patent US20200332015A1 (NAMAB THERAPEUTICS, published 2020)

What was measured:
[1] = target: T1, cynomolgus monkey Fc-tagged CD137 (R&D Systems, cat. 9324-4B-100) (cynomolgus monkey, UniProt A9YYE7 24-186); assay: SPR T200, Fc-tagged antigen captured, scFv analyte
T1 construct: also called cynomolgus CD137-Fc chimeric protein
Protocol: (§1) Affinity of the humanized scFvs to human CD137 was determined by SPR analysis on a T200 device (Biacore, GE Healthcare). […] After each analyte injection cycle, the anti-human Fc-specific IgG was regenerated and new antigen was captured. The scFvs were injected as analyte using a dose response multi-cycle kinetic assay over the captured CD137 with concentrations of the analyte ranging from 0.19 to 45 nM (three-fold dilutions steps) diluted in running buffer. Association and dissociation time were set to 300 s and 720 s, respectively. Obtained sensorgrams were fitted using the 1:1 binding model.
Cross-reactivity to cynomolgus CD137 was measured with cynomolgus monkey Fc-tagged CD137 (R&D Systems, cat. 9324-4B-100) in a similar assay as used to measure binding to human CD137.

[2] = target: T2, Fc tagged human CD137 (R&D Systems, cat. 838-4B-100) (human, UniProt Q07011 24-186); assay: SPR T200, Fc-tagged antigen captured, scFv analyte
T2 construct: also called CD137 Fc chimera; human CD137-Fc chimeric protein
Protocol: as §1

T1 sequence (A9YYE7 entry or part of it): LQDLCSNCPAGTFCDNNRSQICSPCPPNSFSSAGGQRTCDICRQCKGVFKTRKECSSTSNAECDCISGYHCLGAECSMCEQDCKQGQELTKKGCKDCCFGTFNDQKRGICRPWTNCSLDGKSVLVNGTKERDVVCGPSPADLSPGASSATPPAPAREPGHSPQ

Binder	Kd [1] [pM]	koff [1] [s⁻¹]	kon [1] [M⁻¹ s⁻¹]	Kd [2] [pM]	koff [2] [s⁻¹]	kon [2] [M⁻¹ s⁻¹]
PRO1181 (38-02-A04-sc05, IF graft, VH4, scFv) (scFv, VL-linker-VH) scFv: DIQMTQSPSSLSASVGDRVTITCQASQSINNVLAWYQQKPGKPPKLLIYRASTLASGVPSRFSGSGSGTDFTLTISSLQPEDFATYYCQSSYGNYGDFGTGTKVTVLGGGGGSGGGGSGGGGSGGGGSQVQLQESGPGLVKPSETLSLTCKVSGFSFSNSYWICWVRQPPGKGLEWIGCTFVGSSDSTYYANWAKGRVTISVDSSKNQVSLKLSSVTAADTAVYFCARHPSDAVYGYANNLWGQGTLVTVSS	1360	0.00053	388000	1370	0.00048	350000
PRO1182 (38-02-A04-sc06, FULL graft, VH4, scFv) (scFv, VL-linker-VH) scFv: DLQMTQSPSSLSASVGDRVTITCQASQSINNVLAWYQQKPGKPPKLLIYRASTLASGVPSRFSGSGSGTDFTLTISSLQPEDFATYYCQSSYGNYGDFGTGTKVTVLGGGGGSGGGGSGGGGSGGGGSQVQLQESGPGLVKPSETLSLTCKASGFSFSNSYWICWVRQPPGKGLEWIGCTFVGSSDSTYYANWAKGRVTISKDSSKNQVSLKLSSVTAADTAVYFCARHPSDAVYGYANNLWGQGTLVTVSS	14.2	1.83e-05	1.29e+06	17.9	2.58e-05	1.44e+06
